Earlier results, collected in US7931890B2, “Targeted combination immunotherapy of cancer and infectious diseases” (Immunomedics, Inc., priority 1996, dated 2011).

Assays:
CEA = molecular target: T1, CEA (Homo sapiens, UniProt P06731); conditions: Hansen et al. 1993; cited from earlier work
T1 sequence (P06731 35-676): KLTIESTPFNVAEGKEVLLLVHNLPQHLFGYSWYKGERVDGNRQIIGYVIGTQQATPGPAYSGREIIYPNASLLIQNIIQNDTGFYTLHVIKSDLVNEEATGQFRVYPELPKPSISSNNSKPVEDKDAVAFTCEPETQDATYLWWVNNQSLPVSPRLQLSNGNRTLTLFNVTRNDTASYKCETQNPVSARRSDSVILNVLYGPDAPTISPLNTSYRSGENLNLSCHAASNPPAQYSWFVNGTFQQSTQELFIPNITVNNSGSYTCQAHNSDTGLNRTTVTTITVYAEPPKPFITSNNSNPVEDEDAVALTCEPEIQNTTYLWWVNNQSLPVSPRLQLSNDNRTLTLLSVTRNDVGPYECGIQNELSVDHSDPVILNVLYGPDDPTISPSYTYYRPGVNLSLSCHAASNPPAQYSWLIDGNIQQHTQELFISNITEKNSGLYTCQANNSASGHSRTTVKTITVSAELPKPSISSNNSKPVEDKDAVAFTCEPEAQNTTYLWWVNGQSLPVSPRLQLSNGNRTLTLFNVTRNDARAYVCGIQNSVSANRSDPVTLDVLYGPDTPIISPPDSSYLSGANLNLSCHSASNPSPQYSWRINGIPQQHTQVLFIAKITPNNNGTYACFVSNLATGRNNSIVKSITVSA

[1] = Rosebrough 1993; cited from earlier work
streptavidin = streptavidin (Streptomyces avidinii, UniProt P22629); conditions: streptavidin-biotin system; Rosebrough 1993; cited from earlier work
Chain of streptavidin (P22629 25-183): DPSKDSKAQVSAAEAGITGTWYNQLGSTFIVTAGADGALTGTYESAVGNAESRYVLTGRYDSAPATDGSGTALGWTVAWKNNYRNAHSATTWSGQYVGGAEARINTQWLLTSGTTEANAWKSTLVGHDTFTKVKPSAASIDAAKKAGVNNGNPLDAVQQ

For MN-14: second generation CEA-antibody, the “affinity for CEA relative to first generation NP-4” value (CEA) is listed as “ten times more affinity”.
In the case of “avidin: biotin-binding protein found in egg whites”, the pI [1] is listed as > 10.
For O=C(O)CCCC[C@@H]1SC[C@@H]2NC(=O)N[C@@H]21 [biotin], the Ka (streptavidin) is given as 10^15 M^−1.
